The target in this assay is HLA-DR1 on transfected murine fibroblasts (DAP.3-DR1) (human). The assay is described as follows: radioligand binding.

What is called Kd is the free concentration of one partner at which half of the binding sites on the other are occupied at equilibrium, for simple one-to-one binding. High values mean weaker binding, low ones tighter binding. In turn, “staphylococcal enterotoxin B (from UniProt P01552 28-266) (natural protein)” gave a Kd of 141 nM.

(Values after PMC3813916.)
